Molecular target: ZEB expressed in NIH 3T3 cells in the p21 promoter luciferase reporter assay
Test: cell-based or functional assay

Substance: CtBP1
- p21-promoter-driven luciferase reporter (p53-mediated transactivation) in NIH 3T3 cells: 4 fold

Substance: 53BP1 co-expressed in NIH 3T3 cells in the p21 promoter luciferase reporter assay
- p21-promoter-driven luciferase reporter in NIH 3T3 cells, relative light units: 2 fold
